Patent publication US20240076402A1, “HUMANIZED ANTI-LIV1 ANTIBODIES FOR THE TREATMENT OF BREAST CANCER” (Seagen Inc., priority 2017, published 2024)

Key:
Type in all cases: in vivo, human
[1] = system: patients with LIV-1-positive LA/MBC, weight greater than or equal to 80 kg; experiment: Phase 1 dose expansion continuation: safety of a total maximum dose of 250 mg per cycle, with or without GCSF; settings: 2.5 mg/kg, >=200 mg up to 250 mg per cycle
Experimental: This study is a continuation of the dose expansion cohort study for SGN-LIV1A monotherapy (Part A) of the phase 1 study described in Example 1, which includes data from 22 additional administrations of SGN-LIV1A (q3wks IV). Patients were as described in Example 1. These additional administrations were conducted to assess the safety of a total maximum dose of 250 mg per cycle. Patients were dosed at 2.5 mg/kg and each of these 22 additional administrations were greater than or equal to 200 mg per cycle due to the patients having a weight greater than or equal to 80 kg.

[2] = system: hormone receptor-positive/HER2-negative (HR+/HER2-) LIV-1-positive LA/MBC; experiment: Phase 1 study of SGN-LIV1A: anti-tumor activity per RECIST v1.1, HR+/HER2- patients; settings: 17 efficacy evaluable HR+/HER2- patients, dose escalation
Experimental: (§1) This ongoing, phase 1 study evaluated safety, tolerability, pharmacokinetics, and anti-tumor activity of SGN-LIV1A (q3wks IV) in women with LIV-1-positive, unresectable, locally advanced or metastatic breast cancer (LA/MBC) (NCT01969643). Patients with measurable disease and >2 prior cytotoxic regimens for LA/MBC were eligible. Patients with ≥Grade 2 neuropathy were excluded. Response was assessed per RECIST v1.1; pts with stable disease (SD) or better could continue treatment until disease progression or intolerable toxicity. At completion of dose escalation in hormone receptor-positive/HER2-negative (HR+/HER2−) and triple-negative (TN) patients, expansion cohorts were opened to further evaluate safety and antitumor activity of monotherapy in TN patients. Tumor biopsies were evaluated for LIV1 expression.

[3] = system: women with LIV-1-positive, unresectable, locally advanced or metastatic breast cancer (LA/MBC); experiment: Phase 1 study of SGN-LIV1A: safety and tolerability
Experimental: as §1
At the completion of dose escalation, multiple expansion cohorts for SGN-LIV1A monotherapy (Part A) treatment were opened to enroll up to 15 patients each with specific breast cancer subtypes at a recommended dose level to further define the safety and antitumor activity. Following an analysis of safety and activity in the 2.0 mg/kg versus 2.5 mg/kg dose cohorts, the recommended phase 2 dose was determined to be 2.5 mg/kg (maximum dose of 200 mg per cycle)

[4] = system: triple-negative (TN) LIV-1-positive LA/MBC; experiment: Phase 1 study of SGN-LIV1A: anti-tumor activity per RECIST v1.1, triple-negative patients
Experimental: as §1

[5] = % of 69 patients, 0.5 to 2.8 mg/kg q3wks IV

SGN-LIV1A: anti-LIV-1 humanized antibody (hLIV22) conjugated to monomethyl auristatin E (MMAE) via a protease-cleavable valine-citrulline linker
administrations resulting in development of neutropenia ([1]; co-administered with GCSF, 7 administrations): none | administrations resulting in development of neutropenia ([1]; not co-administered with GCSF, 5 of 15 administrations): 33.3% | patients with SD>=24 wks [2]: one | disease control rate (DCR=CR+PR+SD) ([2]; 10 SD): 59% | febrile neutropenic events or neutropenia-associated SAEs ([3]; 2.0 mg/kg (N=26)): no febrile neutropenic events or neutropenia-associated SAEs | incidence of Grade 3 or higher neutropenia AEs ([3]; 2.5 mg/kg dose level of Part A (monotherapy)): 57% | febrile neutropenic events or neutropenia-associated SAEs ([3]; 2.5 mg/kg, doses <=200 mg (N=18)): no febrile neutropenic events or neutropenia-associated SAEs | patients experiencing SAEs associated with neutropenia ([3]; 2.5 mg/kg, doses >200 mg (N=11)): 5 of 11 | febrile neutropenia ([3]; 2.5 mg/kg, doses >200 mg (N=11), includes the one treatment related death due to sepsis): 2 of 11 | dose-limiting toxicities (DLTs) ([3]; 19 DLT-evaluable patients, doses of 0.5 to 2.8 mg/kg q3wks IV): No dose-limiting toxicities (DLTs) occurred | treatment-related deaths ([3]; 69 patients, total dose exceeded 200 mg per cycle, no other treatment-related deaths on-study): one treatment-related death due to sepsis | AEs >=Grade 3: anemia [3, 5]: 15% | AEs >=Grade 3: neutropenia [3, 5]: 25% | treatment-emergent AE: abdominal pain [3, 5]: 25% | treatment-emergent AE: alopecia [3, 5]: 36% | treatment-emergent AE: constipation [3, 5]: 30% | treatment-emergent AE: decreased appetite [3, 5]: 33% | treatment-emergent AE: diarrhea [3, 5]: 25% | treatment-emergent AE: fatigue [3, 5]: 59% | treatment-emergent AE: nausea [3, 5]: 51% | treatment-emergent AE: peripheral neuropathy [3, 5]: 44% | treatment-emergent AE: neutropenia ([3]; all grades, % of 69 patients, 0.5 to 2.8 mg/kg q3wks IV): 25% | patients who discontinued treatment due to AEs ([3]; of 69 patients): Seven | febrile neutropenia ([3]; of 69 patients, both had a total dose exceeding 200 mg per cycle): 2 patients | incidence of Grade 3 or higher neutropenia AEs ([3]; overall monotherapy study population): 39% | maximum tolerated dose ([3]; q3wks IV, not exceeded at the highest dose): ≥ 2.8 mg/kg | confirmed PR rate ([4]; 44 efficacy evaluable TN patients): 21% | objective response rate (ORR) ([4]; 44 efficacy evaluable TN patients (dose escalation plus expansion cohorts), 14 PR): 32% | DCR ([4]; 44 efficacy evaluable TN patients, 14 PR, 14 SD): 64% | clinical benefit rate (CBR=CR+PR+SD>=24 weeks) ([4]; 44 efficacy evaluable TN patients, 16 patients): 36% | median PFS ([4]; TN patients, 95% CI: 6.1, 17.1): 11.3 weeks
